Patent US20170145086A1 (VISTERRA, published 2017)
Residue numbers refer to the chain shown, from its start.

B1: monoclonal antibody 4035 (antibody, V domains shown)
VH: QVQLKESGPGLVAPSQSLSITCTVSGFSLTIYDVHWVRQSPGKGLEWLGVIWSDGSTDYNAAFISRLSISKDNSKSQVFFKMNSLQADDTAIYYCARNWVDQAWFAYWGQGTLVTVSA
VL: DIQMTQSPASLSASVGETITITCRASKNIYSYLAWYQQKQGKSPQLLVYNAKTLPEGVPSRFSGSGSGTQFSLKINSLQPEDFGSYYCQHHYGTPLTFGAGTKLELK
notes: mouse-derived
B2: monoclonal antibody 2419 (antibody, V domains shown)
VH: QVQLQQSGAELVKPGASVRLSCEASGYTFTDYTIHWVKQRSGQGLEWIGWIYPLRGSINYNEKFKDKATLTADKSSSTVYLELGRLTSKDSAVYFCARHGAYYSNAFDYWGQGTTLTVSS
VL: NIVMTQSPASLAVSLGQRATISCRASESVDNDGIRFMHWYQQKPGQPPKLLIYRASNLESGIPARFSGSGSRTDFTLTINPVETDDVATYYCQQSNKDPYTFGGGTKLELK
B3: monoclonal antibody 4540-063 (antibody, IgG1, V domains shown)
VH: QVQLVQSGAELKKPGASVKVSCKASGYTFADYYMNWVRQAPGQGLEWMGWIFPGSGSTYYNQKFQGRVTMTVDKSSSTAYMELSRLRSDDTAVYYCARGDSGRAMDYWGQGTLVTVSS
VL: DIQMTQSPSSLSASVGDRVTITCQASQDINKYLAWYQHKPGKAPKLLIHYTSTLETGVPSRFSGSGSGTDFTFTISSLQPEDIATYYCLQYDNLLTFGGGTKVEIK

Legend:
[1] = target: T1, FLAG-tagged mouse APRIL (WT muAPRIL and muAPRIL Mutants) (Mus musculus, UniProt Q9D777); assay: ELISA, FLAG-APRIL captured with anti-FLAG antibody
T1 sequence (APRIL monomer, looked up): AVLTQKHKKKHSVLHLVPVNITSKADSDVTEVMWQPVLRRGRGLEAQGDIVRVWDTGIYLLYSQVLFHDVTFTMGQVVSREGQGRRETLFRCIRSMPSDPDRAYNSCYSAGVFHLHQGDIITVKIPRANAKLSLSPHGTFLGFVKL
Method: (§1) Antibody binding to human and mouse variants was assessed by ELISA. […] FLAG-tagged APRIL was captured from cell culture media using anti-FLAG antibody. The results are shown in FIGS. 23A-23B, 24A-24B, and 25A-25B. Differentiated epitope mapping of exemplary anti-APRIL antibodies was performed by site directed mutagenesis. Primary characterization of human APRIL binding site was carried out by site-directed mutagenesis of select amino acid positions within APRIL followed by evaluation of antibody binding to these variants by ELISA.

pur. muAPRIL = target: T2, pur. muAPRIL (Mus musculus, UniProt Q9D777); assay: ELISA, purified APRIL control
T2 sequence (APRIL monomer, looked up): T1 sequence (APRIL monomer, looked up)
Method: as §1

[2] = target: mouse BAFF (TNFSF13B, Adipogen) (mouse, UniProt Q9WU72 127-309, limits assumed); assay: indirect ELISA, cytokine coated
Chain of mouse BAFF (TNFSF13B, Adipogen) (Q9WU72 127-309 limits assumed): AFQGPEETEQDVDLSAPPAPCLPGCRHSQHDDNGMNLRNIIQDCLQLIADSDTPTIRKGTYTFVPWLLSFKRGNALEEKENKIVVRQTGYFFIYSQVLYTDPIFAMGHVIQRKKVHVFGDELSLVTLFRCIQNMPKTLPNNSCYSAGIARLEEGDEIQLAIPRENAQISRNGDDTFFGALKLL
Method: (§2) Selected anti-APRIL antibodies were evaluated for potential cross-reactivity with other members of the TNFa superfamily (TNFSF) family of cytokines, including: human TNFα (TNFSF2; Adipogen), human […] (TNFSF4, Adipogen), human FasL (TNFSF6, Adipogen), human TRAIL (TNFSF10, Adipogen), human RANKL (TNFSF11; Adipogen), human Tweak (TNFSF12; Abcam), human and mouse BAFF (TNFSF13B, AB Biosciences and Adipogen, respectively), and human LIGHT (TNFSF14, Adipogen). These cytokines share variable degree of sequence as well as higher order structural homologies. Among them, BAFF appears to be the most closely related to APRIL, with 29% identity and 53% amino acid sequence similarity.
(§3) Binding was evaluated by an indirect ELISA protocol using similar methods described for evaluation of APRIL binding; cytokines were immobilized to ELISA plate at 50 ng per well and then exposed to a solution of each of the test antibodies at a fixed concentration of 10 μg/ml Anti-human or anti-mouse Ig-HRP polyclonal antibody conjugates (Jackson Laboratories) were used for detection of antibody binding. The results presented in FIG. 36 indicated eleven of the twelve antibodies tested in this assay to specifically bind APRIL with no measurable cross-reactivity with the other TNFSF members substantially above assay background.

[3] = target: human TRAIL (TNFSF10, Adipogen) (human, UniProt P50591 95-281, limits assumed); assay: indirect ELISA, cytokine coated
Chain of human TRAIL (TNFSF10, Adipogen) (P50591 95-281 limits assumed): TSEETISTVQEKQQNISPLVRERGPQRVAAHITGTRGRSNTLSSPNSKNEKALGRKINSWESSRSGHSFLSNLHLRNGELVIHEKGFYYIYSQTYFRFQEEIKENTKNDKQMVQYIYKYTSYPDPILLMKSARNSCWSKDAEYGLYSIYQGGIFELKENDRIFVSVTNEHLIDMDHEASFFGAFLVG
Method: as §2, §3

[4] = target: T3, human Tweak (TNFSF12; Abcam) (human, UniProt O43508 94-249, limits assumed); assay: indirect ELISA, cytokine coated
T3 sequence (looked up): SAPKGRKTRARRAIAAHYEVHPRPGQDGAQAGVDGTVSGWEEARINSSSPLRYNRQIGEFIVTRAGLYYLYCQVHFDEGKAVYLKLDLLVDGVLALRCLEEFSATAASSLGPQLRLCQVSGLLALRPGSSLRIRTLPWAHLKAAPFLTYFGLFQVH
Method: as §2, §3

[5] = target: human TNFα (TNFSF2; Adipogen) (human, UniProt P01375 85-233, limits assumed); assay: indirect ELISA, cytokine coated
Chain of human TNFα (TNFSF2; Adipogen) (P01375 85-233 limits assumed): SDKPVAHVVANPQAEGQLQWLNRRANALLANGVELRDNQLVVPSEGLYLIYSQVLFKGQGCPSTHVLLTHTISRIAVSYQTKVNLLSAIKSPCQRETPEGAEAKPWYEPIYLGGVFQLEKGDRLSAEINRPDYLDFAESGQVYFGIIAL
Method: as §2, §3

[6] = target: human BAFF (TNFSF13B, AB Biosciences) (human, UniProt Q9Y275 134-285, limits assumed); assay: indirect ELISA, cytokine coated
Chain of human BAFF (TNFSF13B, AB Biosciences) (Q9Y275 134-285 limits assumed): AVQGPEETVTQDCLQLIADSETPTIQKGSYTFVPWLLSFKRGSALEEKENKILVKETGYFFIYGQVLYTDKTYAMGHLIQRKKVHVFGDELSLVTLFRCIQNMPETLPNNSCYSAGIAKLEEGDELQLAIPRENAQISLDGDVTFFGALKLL
Method: as §2, §3

[7] = target: human LIGHT (TNFSF14, Adipogen) (human, UniProt O43557 89-240, limits assumed); assay: indirect ELISA, cytokine coated
Chain of human LIGHT (TNFSF14, Adipogen) (O43557 89-240 limits assumed): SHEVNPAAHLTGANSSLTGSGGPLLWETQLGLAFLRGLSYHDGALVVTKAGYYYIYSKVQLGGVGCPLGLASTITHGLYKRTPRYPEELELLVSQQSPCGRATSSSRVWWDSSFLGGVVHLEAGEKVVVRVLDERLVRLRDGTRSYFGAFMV
Method: as §2, §3

[8] = target: T4, human RANKL (TNFSF11; Adipogen) (human, UniProt O14788 152-317, limits assumed); assay: indirect ELISA, cytokine coated
T4 sequence (looked up): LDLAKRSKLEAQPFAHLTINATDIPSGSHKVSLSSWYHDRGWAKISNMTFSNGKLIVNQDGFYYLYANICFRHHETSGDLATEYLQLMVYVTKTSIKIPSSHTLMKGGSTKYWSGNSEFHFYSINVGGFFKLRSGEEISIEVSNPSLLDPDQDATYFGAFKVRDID
Method: as §2, §3

[9] = target: T5, human FasL (TNFSF6, Adipogen) (human, UniProt P48023 103-281, limits assumed); assay: indirect ELISA, cytokine coated
T5 sequence (looked up): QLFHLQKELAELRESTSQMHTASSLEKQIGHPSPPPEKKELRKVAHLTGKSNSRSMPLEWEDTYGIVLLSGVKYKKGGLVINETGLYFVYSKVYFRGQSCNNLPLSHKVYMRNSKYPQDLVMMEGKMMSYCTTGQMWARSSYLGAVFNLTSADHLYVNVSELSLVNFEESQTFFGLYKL
Method: as §2, §3

[10] = target: T6, human APRIL variant V181E (Homo sapiens, UniProt O75888); assay: ELISA on the human APRIL variant V181E [panel V181E]
T6 construct: one of the variants grouped under m24
T6 sequence (APRIL monomer, looked up): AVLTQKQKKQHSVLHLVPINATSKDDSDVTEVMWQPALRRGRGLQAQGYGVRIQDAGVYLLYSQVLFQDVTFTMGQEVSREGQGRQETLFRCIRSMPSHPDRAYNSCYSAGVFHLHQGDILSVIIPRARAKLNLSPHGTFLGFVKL
Method: as §1

[11] = target: T7, HA-GCN4 hAPRIL (amino acid residues 105-250) (human, UniProt O75888 105-250); assay: blocking ELISA; blocked: human APRIL binding to BCMA-Fc
T7 construct: Bought (R&D Systems); also called HA-tagged GCN4 human APRIL; HA-GCN4-huAPRIL; not shown: N-terminal HA tag; GCN4 isoleucine zipper oligomerization domain
T7 sequence: T6 sequence (APRIL monomer, looked up) with E77V
Method: Recombinant TACI-Fc or BCMA-Fc was coated on 96 well plates in 0.1 M carbonate-bicarbonate buffer (pH 9.6), overnight at 4° C. Plates were washed three times with 1×PBST (PBS+0.025% Tween 20) followed by blocking with 1% BSA in 1×PBS, 37° C. for 1 hour. All subsequent wash steps were carried out with 1×PBST. To assess antibody blocking, either 15 ng/mL or 50 ng/mL HA-GCN4-huAPRIL was preincubated with varying antibody concentrations ranging from 0.03-30 μg/mL in binding buffer comprised of 1% BSA and 0.025% Tween-20 in 1×PBS. Preincubation was carried out at 30° C. for 1 hour with mixing. Antibody-APRIL premix with 50 ng/mL APRIL or 15 ng/mL APRIL was then added to TACI-Fc coated or BCMA-Fc coated plates, respectively, and incubated for an additional hour at 30° C. HA-tagged APRIL binding to either receptor was quantified using a goat polyclonal anti-HA tag-HRP antibody (Abcam) added at a 1:10000 dilution followed by colorimetric development using 100 μl/well of freshly prepared TMB substrate (KPL) carried out for up to 30 minutes at room temperature before quenching enzymatic reaction by the addition of 1N sulfuric acid. ELISA signal was quantified by absorbance at 450 nm. ELISA data was analyzed by non-linear regression. IC₅₀ values were calculated based on a 4 parameter fit of antibody titration curves. […] Non-blocking antibodies Aprly-1 or Aprly-5 (Enzo Biosciences) were used as negative controls. Mouse specific, blocking antibody aprily-1-1 (Adipogen) was generally used as a positive control in experiments using mouse APRIL (HA-GCN4-mAPRIL).
Assay is based on receptor blocking ELISA using recombinant human APRIL (R&D Systems) and either human TACI-Fc (FIG. 30A) or BCMA-Fc (FIG. 30B).

[12] = target: T8, HA-GCN4 mAPRIL (amino acid residues 96-241) (mouse, UniProt Q9D777 96-241, Assembles as a homotrimer through the GCN4 zipper; one protomer is given.); assay: indirect ELISA on mouse APRIL; row printed 4504-063, legend paragraph 738 says 4540-063
T8 construct: Bought (R&D Systems); also called HA-tagged mouse APRIL (R&D Systems); recombinant mouse APRIL; not shown: N-terminal HA tag and GCN4 isoleucine-zipper trimerisation domain, with any linker, of the bought R&D Systems protein
T8 sequence: T1 sequence (APRIL monomer, looked up)

[13] = target: T7, HA-GCN4 hAPRIL (amino acid residues …); assay: cell-based or functional assay
[14] = target: T7, HA-GCN4 hAPRIL (amino acid residues …); assay: indirect ELISA on human APRIL; row printed 4504-063, legend paragraph 738 says 4540-063
[15] = target: T7, HA-GCN4 hAPRIL (amino acid residues …); assay: blocking ELISA; blocked: human APRIL binding to TACI-Fc

| Binder | binding result [1] | binding result (pur. muAPRIL) | binding result [2] | binding result [3] | binding result [4] | binding result [5] | binding result [6] | binding result [7] | binding result [8] | binding result [9] | binding result [10] | IC50 [11] [nM] | Relative Activity (normalised to 2419) [11] | EC50 [12] [pM] | IC50 (inhibition of APRIL-mediated BCMA NFκB signaling) [13] [nM] | IC50 (inhibition of APRIL-mediated TACI NFκB signaling) [13] [nM] | EC50 [14] [pM] | IC50 [15] [nM] | Relative Activity (normalised to 2419) [15] |
| --- | --- | --- | --- | --- | --- | --- | --- | --- | --- | --- | --- | --- | --- | --- | --- | --- | --- | --- | --- |
| B1 | no binding | no binding | no binding (tested: 10 µg/ml (p-1128)) | no binding (tested: 10 µg/ml (p-1128)) | no binding (tested: 10 µg/ml (p-1128)) | no binding (tested: 10 µg/ml (p-1128)) | no binding (tested: 10 µg/ml (p-1128)) | no binding (tested: 10 µg/ml (p-1128)) | no binding (tested: 10 µg/ml (p-1128)) | no binding (tested: 10 µg/ml (p-1128)) | – | – | – | – | – | – | – | – | – |
| B2 | – | – | no binding (tested: 10 µg/ml (p-1128)) | no binding (tested: 10 µg/ml (p-1128)) | no binding (tested: 10 µg/ml (p-1128)) | no binding (tested: 10 µg/ml (p-1128)) | no binding (tested: 10 µg/ml (p-1128)) | no binding (tested: 10 µg/ml (p-1128)) | no binding (tested: 10 µg/ml (p-1128)) | no binding (tested: 10 µg/ml (p-1128)) | binds | – | – | – | – | – | – | – | – |
| B3 | – | – | – | – | – | – | – | – | – | – | – | 1.92 | 8.11 | 1.56 | ~1.04 | ~7.19 | 2.06 | 0.67 | 2.43 |
